Measurements taken from patent publication US20260242735A1 (UNIVERSIT T BASEL, published 2026).
Blank lines part the entries; values can stand above or below the binder they belong to.

Tests used:
Assay in all cases: flow cytometry on transfected cells, IgG
human CD33 F44V = human CD33 F44V (human, UniProt P20138 18-364)
Experimental: (§1) An alanine scan on human CD33 was performed to the determine the residues on CD33 that are involved in binding to the antibodies investigated. […] Briefly, a mutation library of CD33 was created by high-throughput, site-directed mutagenesis. Each residue was individually mutated to alanine, with alanine codons mutated to serine. The mutant library was arrayed in 384-well microplates and transiently transfected into HEK293-T. Following transfection, cells were incubated with the indicated antibodies (IgG or Fab) at concentrations pre-determined using an independent immunofluorescence titration curve on wild type CD33. […] Binding of each antibody to each mutant clone was determined in duplicates. For each point, background fluorescence was subtracted from the raw data, which were then normalized to antibody reactivity with wild type CD33.
(§2) Antibodies were screened for binding to the human CD33 variants in IgG format. […] For each mutation, background fluorescence was subtracted from the raw data, which were then normalized to antibody reactivity with wild-type CD33.

human CD33 F44I = human CD33 F44I (human, UniProt P20138 18-364)
Experimental: as §1, §2

human CD33 F44P = human CD33 F44P (human, UniProt P20138 18-364)
Experimental: as §1, §2

human CD33 F44Q = human CD33 F44Q (human, UniProt P20138 18-364)
human CD33 F44Q, sequence (P20138 18-364 F44Q limits assumed): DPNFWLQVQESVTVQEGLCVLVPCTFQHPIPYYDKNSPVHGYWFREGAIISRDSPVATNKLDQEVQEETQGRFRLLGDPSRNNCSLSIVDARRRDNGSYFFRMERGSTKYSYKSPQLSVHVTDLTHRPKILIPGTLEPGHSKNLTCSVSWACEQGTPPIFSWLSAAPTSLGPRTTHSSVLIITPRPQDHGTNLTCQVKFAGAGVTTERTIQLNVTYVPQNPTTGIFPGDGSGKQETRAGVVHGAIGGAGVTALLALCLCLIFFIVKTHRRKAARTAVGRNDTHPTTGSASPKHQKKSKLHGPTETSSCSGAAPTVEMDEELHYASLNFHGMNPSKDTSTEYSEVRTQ
Experimental: as §1, §2

human CD33 F44H = human CD33 F44H (human, UniProt P20138 18-364)
Experimental: as §1, §2

human CD33 P46L = human CD33 P46L (human, UniProt P20138 18-364)
human CD33 P46L, sequence (P20138 18-364 P46L limits assumed): as the sequence (P20138 18-364 F44Q limits assumed) above, with Q27F, P29L counted along it
Experimental: as §1, §2

human CD33 P46R = human CD33 P46R (human, UniProt P20138 18-364)
Experimental: as §1, §2

human CD33 P46Y = human CD33 P46Y (human, UniProt P20138 18-364)
human CD33 P46Y, sequence (P20138 18-364 P46Y limits assumed): as the sequence (P20138 18-364 F44Q limits assumed) above, with Q27F, P29Y counted along it
Experimental: as §1, §2

human CD33 P46H = human CD33 P46H (human, UniProt P20138 18-364)
Experimental: as §1, §2

human CD33 I47T = human CD33 I47T (human, UniProt P20138 18-364)
Experimental: as §1, §2

human CD33 I47Q = human CD33 I47Q (human, UniProt P20138 18-364)
Experimental: as §1, §2

human CD33 I47E = human CD33 I47E (human, UniProt P20138 18-364)
Experimental: as §1, §2

human CD33 I47R = human CD33 I47R (human, UniProt P20138 18-364)
Experimental: as §1, §2

human CD33 I47N = human CD33 I47N (human, UniProt P20138 18-364)
Experimental: as §1, §2

human CD33 P48T = human CD33 P48T (human, UniProt P20138 18-364)
human CD33 P48T, sequence (P20138 18-364 P48T limits assumed): as the sequence (P20138 18-364 F44Q limits assumed) above, with Q27F, P31T counted along it
Experimental: as §1, §2

human CD33 P48H = human CD33 P48H (human, UniProt P20138 18-364)
Experimental: as §1, §2

human CD33 P48V = human CD33 P48V (human, UniProt P20138 18-364)
Experimental: as §1, §2

human CD33 P48F = human CD33 P48F (human, UniProt P20138 18-364)
human CD33 P48F, sequence (P20138 18-364 P48F limits assumed): as the sequence (P20138 18-364 F44Q limits assumed) above, with Q27F, P31F counted along it
Experimental: as §1, §2

human CD33 P48N = human CD33 P48N (human, UniProt P20138 18-364)
Experimental: as §1, §2

human CD33 P48Q = human CD33 P48Q (human, UniProt P20138 18-364)
Experimental: as §1, §2

human CD33 P48D = human CD33 P48D (human, UniProt P20138 18-364)
human CD33 P48D, sequence (P20138 18-364 P48D limits assumed): as the sequence (P20138 18-364 F44Q limits assumed) above, with Q27F, P31D counted along it
Experimental: as §1, §2

human CD33 Y49P = human CD33 Y49P (human, UniProt P20138 18-364)
Experimental: as §1, §2

human CD33 Y49Q = human CD33 Y49Q (human, UniProt P20138 18-364)
human CD33 Y49Q, sequence (P20138 18-364 Y49Q limits assumed): as the sequence (P20138 18-364 F44Q limits assumed) above, with Q27F, Y32Q counted along it
Experimental: as §1, §2

human CD33 T42N = human CD33 T42N (human, UniProt P20138 18-364)
Experimental: as §1, §2

human CD33 Y49D = human CD33 Y49D (human, UniProt P20138 18-364)
human CD33 Y49D, sequence (P20138 18-364 Y49D limits assumed): as the sequence (P20138 18-364 F44Q limits assumed) above, with Q27F, Y32D counted along it
Experimental: as §1, §2

human CD33 Y49R = human CD33 Y49R (human, UniProt P20138 18-364)
human CD33 Y49R, sequence (P20138 18-364 Y49R limits assumed): as the sequence (P20138 18-364 F44Q limits assumed) above, with Q27F, Y32R counted along it
Experimental: as §1, §2

human CD33 Y49S = human CD33 Y49S (human, UniProt P20138 18-364)
human CD33 Y49S, sequence (P20138 18-364 Y49S limits assumed): as the sequence (P20138 18-364 F44Q limits assumed) above, with Q27F, Y32S counted along it
Experimental: as §1, §2

human CD33 Y49I = human CD33 Y49I (human, UniProt P20138 18-364)
Experimental: as §1, §2

human CD33 Y49L = human CD33 Y49L (human, UniProt P20138 18-364)
Experimental: as §1, §2

human CD33 T42K = human CD33 T42K (human, UniProt P20138 18-364)
Experimental: as §1, §2

human CD33 Y50S = human CD33 Y50S (human, UniProt P20138 18-364)
human CD33 Y50S, sequence (P20138 18-364 Y50S limits assumed): as the sequence (P20138 18-364 F44Q limits assumed) above, with Q27F, Y33S counted along it
Experimental: as §1, §2

human CD33 Y50V = human CD33 Y50V (human, UniProt P20138 18-364)
Experimental: as §1, §2

human CD33 Y50N = human CD33 Y50N (human, UniProt P20138 18-364)
Experimental: as §1, §2

human CD33 Y50Q = human CD33 Y50Q (human, UniProt P20138 18-364)
Experimental: as §1, §2

human CD33 Y50H = human CD33 Y50H (human, UniProt P20138 18-364)
human CD33 Y50H, sequence (P20138 18-364 Y50H limits assumed): as the sequence (P20138 18-364 F44Q limits assumed) above, with Q27F, Y33H counted along it
Experimental: as §1, §2

human CD33 Y50R = human CD33 Y50R (human, UniProt P20138 18-364)
human CD33 Y50R, sequence (P20138 18-364 Y50R limits assumed): as the sequence (P20138 18-364 F44Q limits assumed) above, with Q27F, Y33R counted along it
Experimental: as §1, §2

human CD33 T42P = human CD33 T42P (human, UniProt P20138 18-364)
human CD33 T42P, sequence (P20138 18-364 T42P limits assumed): as the sequence (P20138 18-364 F44Q limits assumed) above, with T25P, Q27F counted along it
Experimental: as §1, §2

human CD33 F43V = human CD33 F43V (human, UniProt P20138 18-364)
Experimental: as §1, §2

Mean % WT Binding (human CD33 F44V): 98.9 % WT binding
Mean % WT Binding (human CD33 F44I): 93.1 % WT binding
Mean % WT Binding (human CD33 F44P): 88 % WT binding
Mean % WT Binding (human CD33 F44Q): 102 % WT binding
Mean % WT Binding (human CD33 F44H): 91.3 % WT binding
Mean % WT Binding (human CD33 P46L): 107 % WT binding
Mean % WT Binding (human CD33 P46R): 103 % WT binding
Mean % WT Binding (human CD33 P46Y): 79.9 % WT binding
Mean % WT Binding (human CD33 P46H): 107 % WT binding
Mean % WT Binding (human CD33 I47T): 97.2 % WT binding
Mean % WT Binding (human CD33 I47Q): 107 % WT binding
Mean % WT Binding (human CD33 I47E): 122 % WT binding
Mean % WT Binding (human CD33 I47R): 96.9 % WT binding
Mean % WT Binding (human CD33 I47N): 96.6 % WT binding
Mean % WT Binding (human CD33 P48T): 92.6 % WT binding
Mean % WT Binding (human CD33 P48H): 94.4 % WT binding
Mean % WT Binding (human CD33 P48V): 105 % WT binding
Mean % WT Binding (human CD33 P48F): 93.8 % WT binding
Mean % WT Binding (human CD33 P48N): 98.4 % WT binding
Mean % WT Binding (human CD33 P48Q): 111 % WT binding
Mean % WT Binding (human CD33 P48D): 115 % WT binding
Mean % WT Binding (human CD33 Y49P): 117 % WT binding
Mean % WT Binding (human CD33 Y49Q): 115 % WT binding
Mean % WT Binding (human CD33 T42N): 93.5 % WT binding
Mean % WT Binding (human CD33 Y49D): 117 % WT binding
Mean % WT Binding (human CD33 Y49R): 101 % WT binding
Mean % WT Binding (human CD33 Y49S): 102 % WT binding
Mean % WT Binding (human CD33 Y49I): 113 % WT binding
Mean % WT Binding (human CD33 Y49L): 97.9 % WT binding
Mean % WT Binding (human CD33 T42K): 91.2 % WT binding
Mean % WT Binding (human CD33 Y50S): 122 % WT binding
Mean % WT Binding (human CD33 Y50V): 108 % WT binding
Mean % WT Binding (human CD33 Y50N): 108 % WT binding
Mean % WT Binding (human CD33 Y50Q): 103 % WT binding
Mean % WT Binding (human CD33 Y50H): 92.2 % WT binding
Mean % WT Binding (human CD33 Y50R): 96.9 % WT binding
Mean % WT Binding (human CD33 T42P): 9.3 % WT binding
Mean % WT Binding (human CD33 F43V): 91.8 % WT binding
B1: Refmab #6 (antibody, human IgG1, V domains shown)
VH: QVQLQQPGAEVVKPGASVKMSCKASGYTFTSYYIHWIKQTPGQGLEWVGVIYPGNDDISYNQKFQGKATLTADKSSTTAYMQLSSLTSEDSAVYYCAREVRLRYFDVWGQGTTVTVSS
VL: EIVLTQSPGSLAVSPGERVTMSCKSSQSVFFSSSQKNYLAWYQQIPGQSPRLLIYWASTRESGVPDRFTGSGSGTDFTLTISSVQPEDLAIYYCHQYLSSRTFGQGTKLEIK

Mean % WT Binding (human CD33 F44V): 97.7 % WT binding
Mean % WT Binding (human CD33 F44I): 106 % WT binding
Mean % WT Binding (human CD33 F44P): 114 % WT binding
Mean % WT Binding (human CD33 F44Q): 93.9 % WT binding
Mean % WT Binding (human CD33 F44H): 117 % WT binding
Mean % WT Binding (human CD33 P46L): 87.2 % WT binding
Mean % WT Binding (human CD33 P46R): 103 % WT binding
Mean % WT Binding (human CD33 P46Y): 48 % WT binding
Mean % WT Binding (human CD33 P46H): 69.8 % WT binding
Mean % WT Binding (human CD33 I47T): 98.4 % WT binding
Mean % WT Binding (human CD33 I47Q): 94.6 % WT binding
Mean % WT Binding (human CD33 I47E): 89.1 % WT binding
Mean % WT Binding (human CD33 I47R): 94.6 % WT binding
Mean % WT Binding (human CD33 I47N): 88 % WT binding
Mean % WT Binding (human CD33 P48T): 91.4 % WT binding
Mean % WT Binding (human CD33 P48H): 7.4 % WT binding
Mean % WT Binding (human CD33 P48V): 53.5 % WT binding
Mean % WT Binding (human CD33 P48F): 6 % WT binding
Mean % WT Binding (human CD33 P48N): 4.4 % WT binding
Mean % WT Binding (human CD33 P48Q): 2.1 % WT binding
Mean % WT Binding (human CD33 P48D): 2.1 % WT binding
Mean % WT Binding (human CD33 Y49P): 2.2 % WT binding
Mean % WT Binding (human CD33 Y49Q): 2.3 % WT binding
Mean % WT Binding (human CD33 T42N): 91.1 % WT binding
Mean % WT Binding (human CD33 Y49D): 1.7 % WT binding
Mean % WT Binding (human CD33 Y49R): 1 % WT binding
Mean % WT Binding (human CD33 Y49S): 0.5 % WT binding
Mean % WT Binding (human CD33 Y49I): 0.5 % WT binding
Mean % WT Binding (human CD33 Y49L): 0.8 % WT binding
Mean % WT Binding (human CD33 T42K): 79.5 % WT binding
Mean % WT Binding (human CD33 Y50S): 5.3 % WT binding
Mean % WT Binding (human CD33 Y50V): 4.2 % WT binding
Mean % WT Binding (human CD33 Y50N): 3.2 % WT binding
Mean % WT Binding (human CD33 Y50Q): 2.9 % WT binding
Mean % WT Binding (human CD33 Y50H): 7.1 % WT binding
Mean % WT Binding (human CD33 Y50R): 47 % WT binding
Mean % WT Binding (human CD33 T42P): 13.9 % WT binding
Mean % WT Binding (human CD33 F43V): 82.2 % WT binding
B2: Refmab #5 (antibody, human IgG1, V domains shown)
VH: QVQLVQSGAEVKKPGASVKVSCKASGYTFTNYDINWVRQAPGQGLEWIGWIYPGDGSTKYNEKFKAKATLTADTSTSTAYMELRSLRSDDTAVYYCASGYEDAMDYWGQGTTVTVSS
VL: DIQMTQSPSSLSASVGDRVTINCKASQDINSYLSWFQQKPGKAPKTLIYRANRLVDGVPSRFSGSGSGQDYTLTISSLQPEDFATYYCLQYDEFPLTFGGGTKVEIK
